According to PMC11162469, “Discovery of RXFP2 genetic association in resistant hypertensive men and RXFP2 antagonists for the treatment of resistant hypertension” (Scientific Reports, 2024):
One block for each substance: values may come before it.

Tests used:
[1] = biological target: human relaxin family peptide receptor 2 (RXFP2) (human) (UniProt Q8WXD0)
[2] = biological target: human relaxin family peptide receptor 2 (RXFP2) (human) (UniProt Q8WXD0); remark: listed apart in the source
[3] = biological target: rat relaxin family peptide receptor 2 (RXFP2) (rat) (UniProt Q5ECL0)
Sequence of rat relaxin family peptide receptor 2 (RXFP2) (rat) (Q5ECL0 entry or part of it): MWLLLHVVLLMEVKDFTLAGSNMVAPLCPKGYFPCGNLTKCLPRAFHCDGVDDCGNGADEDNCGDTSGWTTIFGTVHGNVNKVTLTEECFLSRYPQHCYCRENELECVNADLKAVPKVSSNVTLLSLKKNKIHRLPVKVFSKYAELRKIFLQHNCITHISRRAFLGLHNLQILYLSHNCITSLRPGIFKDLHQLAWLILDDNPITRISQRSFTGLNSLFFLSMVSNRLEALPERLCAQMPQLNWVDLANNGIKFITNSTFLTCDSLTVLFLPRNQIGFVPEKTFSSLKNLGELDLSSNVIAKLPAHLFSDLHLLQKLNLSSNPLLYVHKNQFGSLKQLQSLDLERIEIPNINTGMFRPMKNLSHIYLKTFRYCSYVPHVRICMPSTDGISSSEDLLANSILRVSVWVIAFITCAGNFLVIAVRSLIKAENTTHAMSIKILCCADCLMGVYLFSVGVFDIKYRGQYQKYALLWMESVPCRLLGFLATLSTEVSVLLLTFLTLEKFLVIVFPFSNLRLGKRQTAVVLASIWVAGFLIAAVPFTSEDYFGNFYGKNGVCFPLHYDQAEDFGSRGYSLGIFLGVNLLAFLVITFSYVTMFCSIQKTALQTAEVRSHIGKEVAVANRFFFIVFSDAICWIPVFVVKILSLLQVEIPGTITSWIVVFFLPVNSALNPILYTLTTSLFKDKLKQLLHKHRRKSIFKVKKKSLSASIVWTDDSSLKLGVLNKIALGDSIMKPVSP

[4] = biological target: human relaxin family peptide receptor 2 (RXFP2) (human) (UniProt Q8WXD0); remark: listed apart in the source
[5] = biological target: rat relaxin family peptide receptor 2 (RXFP2) (rat) (UniProt Q5ECL0); remark: listed apart in the source
[6] = biological target: human relaxin family peptide receptor 2 (RXFP2) (human) (UniProt Q8WXD0); remark: listed apart in the source
[7] = biological target: rat relaxin family peptide receptor 2 (RXFP2) (rat) (UniProt Q5ECL0); remark: listed apart in the source
rat RXFP1 (rat) = rat RXFP1 (rat) (UniProt Q6R6I6)
Sequence of rat RXFP1 (rat) (Q6R6I6 whole entry): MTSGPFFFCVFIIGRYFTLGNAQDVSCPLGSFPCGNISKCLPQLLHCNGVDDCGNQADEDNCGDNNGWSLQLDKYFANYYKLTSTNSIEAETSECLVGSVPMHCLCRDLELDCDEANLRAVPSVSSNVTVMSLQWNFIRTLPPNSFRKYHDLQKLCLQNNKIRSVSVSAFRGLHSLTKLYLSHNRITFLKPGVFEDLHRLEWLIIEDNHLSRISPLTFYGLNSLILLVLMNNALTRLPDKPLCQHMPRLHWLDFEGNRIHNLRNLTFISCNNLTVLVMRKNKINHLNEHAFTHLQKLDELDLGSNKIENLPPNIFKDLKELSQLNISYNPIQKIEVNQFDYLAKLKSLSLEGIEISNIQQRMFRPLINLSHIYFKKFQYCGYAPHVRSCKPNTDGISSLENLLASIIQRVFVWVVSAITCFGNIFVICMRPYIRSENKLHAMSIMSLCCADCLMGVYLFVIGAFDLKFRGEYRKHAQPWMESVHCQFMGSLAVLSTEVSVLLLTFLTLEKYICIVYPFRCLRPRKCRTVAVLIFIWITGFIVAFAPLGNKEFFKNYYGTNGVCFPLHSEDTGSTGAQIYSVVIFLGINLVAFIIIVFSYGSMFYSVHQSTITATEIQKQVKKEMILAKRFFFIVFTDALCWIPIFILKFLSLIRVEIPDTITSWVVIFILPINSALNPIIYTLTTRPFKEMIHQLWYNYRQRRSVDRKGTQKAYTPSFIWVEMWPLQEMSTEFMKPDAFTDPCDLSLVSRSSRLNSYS

Sequence of Human INSL3 (insulin-like peptide 3) (ligand) (P51460 21-131): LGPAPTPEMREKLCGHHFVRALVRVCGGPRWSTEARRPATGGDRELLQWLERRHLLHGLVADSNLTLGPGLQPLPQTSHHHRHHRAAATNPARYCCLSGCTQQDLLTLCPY
Sequence of human relaxin family peptide receptor 2 (RXFP2) (human) (Q8WXD0 whole entry): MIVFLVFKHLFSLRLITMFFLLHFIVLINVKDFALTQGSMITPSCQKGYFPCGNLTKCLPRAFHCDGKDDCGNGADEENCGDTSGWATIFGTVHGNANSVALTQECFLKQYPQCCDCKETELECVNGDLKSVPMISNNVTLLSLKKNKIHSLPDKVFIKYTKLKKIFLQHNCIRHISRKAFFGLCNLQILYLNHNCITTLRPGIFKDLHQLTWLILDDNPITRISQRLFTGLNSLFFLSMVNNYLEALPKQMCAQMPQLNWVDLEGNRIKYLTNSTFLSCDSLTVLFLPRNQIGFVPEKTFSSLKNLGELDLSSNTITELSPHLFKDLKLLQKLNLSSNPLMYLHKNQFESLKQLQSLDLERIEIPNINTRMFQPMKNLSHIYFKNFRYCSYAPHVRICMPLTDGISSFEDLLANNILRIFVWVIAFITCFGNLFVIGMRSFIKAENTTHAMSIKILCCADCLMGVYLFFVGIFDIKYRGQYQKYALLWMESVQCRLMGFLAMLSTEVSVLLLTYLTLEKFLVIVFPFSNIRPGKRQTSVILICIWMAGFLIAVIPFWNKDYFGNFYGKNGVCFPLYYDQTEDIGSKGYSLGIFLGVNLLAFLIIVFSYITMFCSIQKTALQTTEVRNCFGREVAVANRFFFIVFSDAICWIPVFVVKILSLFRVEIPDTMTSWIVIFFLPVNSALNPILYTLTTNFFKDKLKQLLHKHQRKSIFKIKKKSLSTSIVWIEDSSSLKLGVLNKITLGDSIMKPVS
Sequence of INSL3 (species not stated for the stable HEK293 cAMP assays) (ligand) (P51460 21-131): as the sequence (P51460 21-131) above
Sequence of relaxin (H2 Relaxin) (ligand) (P04090 25-185): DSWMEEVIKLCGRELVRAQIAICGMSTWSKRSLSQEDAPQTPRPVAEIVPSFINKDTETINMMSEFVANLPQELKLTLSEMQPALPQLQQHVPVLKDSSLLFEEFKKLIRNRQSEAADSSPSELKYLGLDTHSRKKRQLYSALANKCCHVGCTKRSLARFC

EC50, INSL3-induced cAMP (HTRF) in HEK293 expressing human RXFP2 (BacMam) [1]: 0.048 nM
EC50, INSL3-induced intracellular calcium (FLIPR) in HEK293 Gα16 cells transiently expressing RXFP2 [2]: 13.4 nM
EC50, INSL3-induced cAMP in HEK293 transiently expressing rat RXFP2 (BacMam) [3]: 13 nM
EC50, CYP11B1 mRNA expression after 48 h in H295R-hRXFP2 [4]: 1.3 nM
EC50, CYP11B2 mRNA expression after 48 h in H295R-hRXFP2 [4]: 2 nM
EC50, cAMP generation after 30 min in H295R stably expressing human RXFP2 [4]: 4 nM
EC50, CYP11B1 mRNA expression after 48 h in H295R-rRXFP2 [5]: 0.3 nM
EC50, CYP11B2 mRNA expression after 48 h in H295R-rRXFP2 [5]: 0.4 nM
Substance: Human INSL3 (insulin-like peptide 3) (ligand)

EC50, INSL3-induced cAMP generation in HEK293-hRXFP2 (stable) [6]: 2.9 nM
EC50, INSL3-induced cAMP generation in HEK293-rRXFP2 cells (stable) [7]: 8.4 nM
Substance: INSL3 (species not stated for the stable HEK293 cAMP assays) (ligand)

EC50, relaxin-induced cAMP generation in HEK293-rat RXFP1 (stable) (rat RXFP1 (rat)): 29.5 nM
Substance: relaxin (H2 Relaxin) (ligand)
